Test results: the Human Domainome abundance scans (Beltran et al. 2025)
± gives the uncertainty stated by the source.

B1: POU domain, class 3, transcription factor 2, residues 356 to 411; numbered along this chain, P20265 (parent)
chain: KKRTSIEVSVKGALESHFLKCPKPSAQEITSLADSLQLEKEVVRVWFCNRRQKEKR

Variants of: B1
Test: abundance fitness (aPCA) (normalised: wild type 0, dead -1); higher = more abundant; growth selection in yeast, the domain comes from the species named
Details: Homo sapiens

**Q.** Which abundance fitness does the source give for KKRTSIEVSVKGALESHFLKCPKPSAQEITSLADSLQLEKEVVRVWFLNRRQKEKR [C48L] here?
**A.** -0.059 ± 0.092

**Q.** With KKRTSIEVSVKGALESHFLKCPKPSAQEITSLADSLQLEKEVVEVWFCNRRQKEKR [R44E] as the variant, how does the abundance fitness read?
**A.** 0.027 ± 0.12

**Q.** With KKRTSIEVSVKGALESHFLKCPKPSAQEITSLADSLQLEKEVVTVWFCNRRQKEKR [R44T] as the variant, how does the abundance fitness read?
**A.** -0.08 ± 0.11

**Q.** With KKRTSIEVSVKGALESHFLKCPKPSAQEITSLADSLQLEKEVVSVWFCNRRQKEKR [R44S] as the variant, how does the abundance fitness read?
**A.** -0.09 ± 0.07

**Q.** With KKRTSIEVSVKGALESHFLKCPKPSAQEITSLADSLQLEKEVVWVWFCNRRQKEKR [R44W] as the variant, how does the abundance fitness read?
**A.** -0.412 ± 0.14

**Q.** For KKRTSIEVSVKGALESHFLKCPKPSAQEITSLADSLQLEKEVVCVWFCNRRQKEKR [R44C], which abundance fitness is on record?
**A.** -0.495 ± 0.1

**Q.** For KKRTSIEVSVKGALESHFLKCPKPSAQEITSLADSLQLEKEVVIVWFCNRRQKEKR [R44I], which abundance fitness is on record?
**A.** -0.272 ± 0.11

**Q.** With KKRTSIEVSVKGALESHFLKCPKPSAQEITSLADSLQLEKEVVAVWFCNRRQKEKR [R44A] as the variant, how does the abundance fitness read?
**A.** -0.027 ± 0.083

**Q.** With KKRTSIEVSVKGALESHFLKCPKPSAQEITSLADSLQLEKEVVNVWFCNRRQKEKR [R44N] as the variant, how does the abundance fitness read?
**A.** -0.152 ± 0.11

**Q.** Which abundance fitness does the source give for KKRTSIEVSVKGALESHFLKCPKPSAQEITSLADSLQLEKEVVPVWFCNRRQKEKR [R44P] here?
**A.** -0.814 ± 0.12

**Q.** Which abundance fitness does the source give for KKRTSIEVSVKGALESHFLKCPKPSAQEITSLADSLQLEKEVVFVWFCNRRQKEKR [R44F] here?
**A.** -0.481 ± 0.089

**Q.** With KKRTSIEVSVKGALESHFLKCPKPSAQEITSLADSLQLEKEVVYVWFCNRRQKEKR [R44Y] as the variant, how does the abundance fitness read?
**A.** -0.416 ± 0.12

**Q.** For KKRTSIEVSVKGALESHFLKCPKPSAQEITSLADSLQLEKEVVVVWFCNRRQKEKR [R44V], which abundance fitness is on record?
**A.** -0.38 ± 0.076

**Q.** For KKRTSIEVSVKGALESHFLKCPKPSAQEITSLADSLQLEKEVVQVWFCNRRQKEKR [R44Q], which abundance fitness is on record?
**A.** -0.057 ± 0.1

**Q.** For KKRTSIEVSVKGALESHFLKCPKPSAQEITSLADSLQLEKEVVDVWFCNRRQKEKR [R44D], which abundance fitness is on record?
**A.** 0.008 ± 0.11

**Q.** Which abundance fitness does the source give for KKRTSIEVSVKGALESHFLKCPKPSAQEITSLADSLQLEKEVVGVWFCNRRQKEKR [R44G] here?
**A.** -0.188 ± 0.1

**Q.** Which abundance fitness does the source give for KKRTSIEVSVKGALESHFLKCPKPSAQEITSLADSLQLEKEVVHVWFCNRRQKEKR [R44H] here?
**A.** -0.127 ± 0.11

**Q.** Which abundance fitness does the source give for KKRTSIEVSVKGALESHFLKCPKPSAQEITSLADSLQLEKEVVLVWFCNRRQKEKR [R44L] here?
**A.** -0.407 ± 0.068

**Q.** With KKRTSIEVSVKGALESHFLKCPKPSAQEITSLADSLQLEKEVVMVWFCNRRQKEKR [R44M] as the variant, how does the abundance fitness read?
**A.** -0.214 ± 0.11

**Q.** With KKRTSIEVSVKGALESHFLKCPKPSAQEITSLADSLQLEKEVTRVWFCNRRQKEKR [V43T] as the variant, how does the abundance fitness read?
**A.** -0.841 ± 0.12

**Q.** With KKRTSIEVSVKGALESHFLKCPKPSAQEITSLADSLQLEKEVWRVWFCNRRQKEKR [V43W] as the variant, how does the abundance fitness read?
**A.** -0.793 ± 0.16

**Q.** Which abundance fitness does the source give for KKRTSIEVSVKGALESHFLKCPKPSAQEITSLADSLQLEKEVNRVWFCNRRQKEKR [V43N] here?
**A.** -0.889 ± 0.34

**Q.** For KKRTSIEVSVKGALESHFLKCPKPSAQEITSLADSLQLEKEVYRVWFCNRRQKEKR [V43Y], which abundance fitness is on record?
**A.** -0.955 ± 0.2

**Q.** With KKRTSIEVSVKGALESHFLKCPKPSAQEITSLADSLQLEKEVIRVWFCNRRQKEKR [V43I] as the variant, how does the abundance fitness read?
**A.** -0.197 ± 0.12

**Q.** Which abundance fitness does the source give for KKRTSIEVSVKGALESHFLKCPKPSAQEITSLADSLQLEKEVLRVWFCNRRQKEKR [V43L] here?
**A.** -0.361 ± 0.068

**Q.** With KKRTSIEVSVKGALESHFLKCPKPSAQEITSLADSLQLEKEVPRVWFCNRRQKEKR [V43P] as the variant, how does the abundance fitness read?
**A.** -0.891 ± 0.17

**Q.** For KKRTSIEVSVKGALESHFLKCPKPSAQEITSLADSLQLEKEVKRVWFCNRRQKEKR [V43K], which abundance fitness is on record?
**A.** -0.909 ± 0.3

**Q.** Which abundance fitness does the source give for KKRTSIEVSVKGALESHFLKCPKPSAQEITSLADSLQLEKEVMRVWFCNRRQKEKR [V43M] here?
**A.** -0.944 ± 0.16

**Q.** For KKRTSIEVSVKGALESHFLKCPKPSAQEITSLADSLQLEKEVRRVWFCNRRQKEKR [V43R], which abundance fitness is on record?
**A.** -0.95 ± 0.11

**Q.** For KKRTSIEVSVKGALESHFLKCPKPSAQEITSLADSLQLEKEVHRVWFCNRRQKEKR [V43H], which abundance fitness is on record?
**A.** -0.938 ± 0.2

**Q.** For KKRTSIEVSVKGALESHFLKCPKPSAQEITSLADSLQLEKEVQRVWFCNRRQKEKR [V43Q], which abundance fitness is on record?
**A.** -0.877 ± 0.19

**Q.** With KKRTSIEVSVKGALESHFLKCPKPSAQEITSLADSLQLEKEVSRVWFCNRRQKEKR [V43S] as the variant, how does the abundance fitness read?
**A.** -0.985 ± 0.14

**Q.** Which abundance fitness does the source give for KKRTSIEVSVKGALESHFLKCPKPSAQEITSLADSLQLEKEVVRVWLCNRRQKEKR [F47L] here?
**A.** -0.722 ± 0.1

**Q.** With KKRTSIEVSVKGALESHFLKCPKPSAQEITSLADSLQLEKEVVRVWMCNRRQKEKR [F47M] as the variant, how does the abundance fitness read?
**A.** -0.43 ± 0.12

**Q.** Which abundance fitness does the source give for KKRTSIEVSVKGALESHFLKCPKPSAQEITSLADSLQLEKEVVRVWVCNRRQKEKR [F47V] here?
**A.** -0.784 ± 0.13

**Q.** Which abundance fitness does the source give for KKRTSIEVSVKGALESHFLKCPKPSAQEITSLADSLQLEKEVVRVWKCNRRQKEKR [F47K] here?
**A.** -0.961 ± 0.21

**Q.** For KKRTSIEVSVKGALESHFLKCPKPSAQEITSLADSLQLEKEVVRVWNCNRRQKEKR [F47N], which abundance fitness is on record?
**A.** -0.967 ± 0.38

**Q.** For KKRTSIEVSVKGALESHFLKCPKPSAQEITSLADSLQLEKEVVRVWYCNRRQKEKR [F47Y], which abundance fitness is on record?
**A.** -0.328 ± 0.14

**Q.** With KKRTSIEVSVKGALESHFLKCPKPSAQEITSLADSLQLEKEVVRVWICNRRQKEKR [F47I] as the variant, how does the abundance fitness read?
**A.** -0.751 ± 0.21

**Q.** For KKRTSIEVSVKGALESHFLKCPKPSAQEITSLADSLQLEKEVVRVWSCNRRQKEKR [F47S], which abundance fitness is on record?
**A.** -0.871 ± 0.12

**Q.** Which abundance fitness does the source give for KKRTSIEVSVKGALESHFLKCPKPSAQEITSLADSLQLEKEVVRVWDCNRRQKEKR [F47D] here?
**A.** -0.852 ± 0.37

**Q.** Which abundance fitness does the source give for KKRTSIEVSVKGALESHFLKCPKPSAQEITSLADSLQLEKEVVRVWECNRRQKEKR [F47E] here?
**A.** -0.672 ± 0.17

**Q.** Which abundance fitness does the source give for KKRTSIEVSVKGALESHFLKCPKPSAQEITSLADSLQLEKEVVRVWACNRRQKEKR [F47A] here?
**A.** -0.92 ± 0.15

**Q.** For KKRTSIEVSVKGALESHFLKCPKPSAQEITSLADSLQLEKEVVRVWQCNRRQKEKR [F47Q], which abundance fitness is on record?
**A.** -1 ± 0.19

**Q.** Which abundance fitness does the source give for KKRTSIEVSVKGALESHFLKCPKPSAQEITSLADSLQLEKEVVRVWPCNRRQKEKR [F47P] here?
**A.** -0.941 ± 0.24

**Q.** For KKRTSIEVSVKGALESHFLKCPKPSAQEITSLADSLQLEKEVVRVWCCNRRQKEKR [F47C], which abundance fitness is on record?
**A.** -0.937 ± 0.27

**Q.** Which abundance fitness does the source give for KKRTSIEVSVKGALESHFLKCPKPSAQEITSLADSLQLEKEVVRVWGCNRRQKEKR [F47G] here?
**A.** -0.698 ± 0.14
